Assay results taken from the supplement of paper PMC10065799, “High-throughput profiling of sequence recognition by tyrosine kinases and SH2 domains using bacterial peptide display” (eLife, 2023).

Legend:
AncSZ = experiment: phosphorylation enrichment, bacterial display (enrichment ratio); higher = better substrate or ligand; peptides without Tyr show the background
Fer (mouse) = experiment: as above
Hck = Hck (UniProt P08631); experiment: as above
EPHB2 = EPHB2 (UniProt P29323); experiment: as above
MERTK = MERTK (UniProt Q12866); experiment: as above
Fyn = Fyn (UniProt P06241); experiment: as above
c-Abl (mouse) = experiment: as above
FGFR1 = FGFR1 (UniProt P11362); experiment: as above
FGFR3 = FGFR3 (UniProt P22607); experiment: as above
Fes = Fes (UniProt P07332); experiment: as above
EPHB1 = EPHB1 (UniProt P54762); experiment: as above
c-Src = experiment: as above
Jak2 = Jak2 (UniProt O60674); experiment: as above
Grb2 SH2 = Grb2 SH2 (UniProt P62993); experiment: SH2 binding enrichment of the phosphorylated peptide, bacterial display (enrichment ratio); higher = better substrate or ligand; peptides without Tyr show the background
SHP2-C SH2 = experiment: as above
c-Src SH2 = experiment: as above
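For SH2 binding enrichment of the phosphorylated peptide, bacterial display in this document: peptide library displayed on the E. coli surface as eCPX fusions, selected cells deep-sequenced, score is each peptide's frequency after selection divided by its frequency in the input.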
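For phosphorylation enrichment, bacterial display in this document: 11-residue human phosphosite peptides and single-mutation variants displayed on the E. coli surface, counted by deep sequencing, each peptide's frequency after selection divided by its frequency in the unselected input library; frequency after pTyr selection over input frequency; kinase dosed for 20-30% of maximal phosphorylation in three min.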

Sequence of FGFR1 (P11362 whole entry, looked up): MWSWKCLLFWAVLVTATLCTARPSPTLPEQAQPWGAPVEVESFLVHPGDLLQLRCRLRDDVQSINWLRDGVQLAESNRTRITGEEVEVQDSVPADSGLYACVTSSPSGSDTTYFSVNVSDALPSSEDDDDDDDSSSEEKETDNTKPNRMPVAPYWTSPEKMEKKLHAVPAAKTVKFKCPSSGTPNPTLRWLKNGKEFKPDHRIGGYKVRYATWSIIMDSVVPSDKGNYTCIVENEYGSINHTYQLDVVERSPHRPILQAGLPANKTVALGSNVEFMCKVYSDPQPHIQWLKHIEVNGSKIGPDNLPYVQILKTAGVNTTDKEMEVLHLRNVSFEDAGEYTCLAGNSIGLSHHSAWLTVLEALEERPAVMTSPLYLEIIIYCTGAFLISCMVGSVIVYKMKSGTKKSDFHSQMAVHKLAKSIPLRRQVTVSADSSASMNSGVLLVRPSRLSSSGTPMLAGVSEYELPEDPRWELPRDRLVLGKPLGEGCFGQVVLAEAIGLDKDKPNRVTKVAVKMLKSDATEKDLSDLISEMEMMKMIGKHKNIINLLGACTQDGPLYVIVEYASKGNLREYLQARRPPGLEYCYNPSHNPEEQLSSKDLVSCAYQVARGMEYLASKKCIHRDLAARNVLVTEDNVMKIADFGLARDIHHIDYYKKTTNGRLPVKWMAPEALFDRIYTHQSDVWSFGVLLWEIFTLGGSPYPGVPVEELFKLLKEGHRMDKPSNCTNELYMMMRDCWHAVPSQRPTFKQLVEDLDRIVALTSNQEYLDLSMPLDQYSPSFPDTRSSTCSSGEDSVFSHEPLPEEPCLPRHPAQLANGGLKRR
Sequence of Hck (P08631 whole entry, looked up): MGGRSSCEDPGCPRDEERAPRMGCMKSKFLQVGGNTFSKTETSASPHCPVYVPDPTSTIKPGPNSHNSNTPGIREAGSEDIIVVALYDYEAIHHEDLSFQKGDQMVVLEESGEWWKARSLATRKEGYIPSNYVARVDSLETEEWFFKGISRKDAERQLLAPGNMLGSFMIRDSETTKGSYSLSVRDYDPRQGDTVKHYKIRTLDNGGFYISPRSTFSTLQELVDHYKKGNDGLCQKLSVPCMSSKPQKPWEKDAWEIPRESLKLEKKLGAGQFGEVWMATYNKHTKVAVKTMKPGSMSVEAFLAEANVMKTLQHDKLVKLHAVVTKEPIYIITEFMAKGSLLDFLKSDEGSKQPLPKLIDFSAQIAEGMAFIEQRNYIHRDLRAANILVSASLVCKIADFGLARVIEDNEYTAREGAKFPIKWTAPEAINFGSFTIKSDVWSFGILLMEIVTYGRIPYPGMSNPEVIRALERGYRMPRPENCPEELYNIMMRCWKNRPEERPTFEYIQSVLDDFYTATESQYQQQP
Sequence of Jak2 (O60674 whole entry, looked up): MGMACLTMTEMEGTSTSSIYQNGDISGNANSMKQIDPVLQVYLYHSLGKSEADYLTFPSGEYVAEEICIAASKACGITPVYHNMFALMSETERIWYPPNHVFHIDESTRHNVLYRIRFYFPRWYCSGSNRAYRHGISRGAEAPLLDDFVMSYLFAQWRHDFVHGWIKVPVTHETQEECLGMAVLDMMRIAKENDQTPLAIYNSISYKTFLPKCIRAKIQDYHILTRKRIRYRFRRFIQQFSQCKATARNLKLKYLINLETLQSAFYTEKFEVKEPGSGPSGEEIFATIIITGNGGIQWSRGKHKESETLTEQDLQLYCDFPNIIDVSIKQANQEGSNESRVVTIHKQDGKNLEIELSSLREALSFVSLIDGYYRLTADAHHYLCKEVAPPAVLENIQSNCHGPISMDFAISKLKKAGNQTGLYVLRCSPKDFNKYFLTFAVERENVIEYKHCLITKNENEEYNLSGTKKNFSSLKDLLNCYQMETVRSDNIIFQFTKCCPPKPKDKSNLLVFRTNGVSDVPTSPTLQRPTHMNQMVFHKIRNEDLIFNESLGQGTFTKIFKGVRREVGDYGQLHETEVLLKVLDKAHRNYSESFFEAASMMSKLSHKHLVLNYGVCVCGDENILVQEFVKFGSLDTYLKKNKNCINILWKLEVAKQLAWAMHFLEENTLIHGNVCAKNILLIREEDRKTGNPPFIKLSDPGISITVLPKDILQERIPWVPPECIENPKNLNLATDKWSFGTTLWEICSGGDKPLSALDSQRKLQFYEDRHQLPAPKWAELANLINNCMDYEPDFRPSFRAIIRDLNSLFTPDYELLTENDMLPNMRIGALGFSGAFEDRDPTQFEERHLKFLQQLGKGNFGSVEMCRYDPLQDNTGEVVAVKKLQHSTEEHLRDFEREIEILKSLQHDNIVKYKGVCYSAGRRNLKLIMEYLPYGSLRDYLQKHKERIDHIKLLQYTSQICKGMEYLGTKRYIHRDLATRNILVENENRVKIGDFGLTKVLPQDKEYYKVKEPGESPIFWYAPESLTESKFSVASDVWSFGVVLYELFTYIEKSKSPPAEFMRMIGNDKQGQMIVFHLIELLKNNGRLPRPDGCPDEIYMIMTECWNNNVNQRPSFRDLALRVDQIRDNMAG
Sequence of Fyn (P06241 whole entry, looked up): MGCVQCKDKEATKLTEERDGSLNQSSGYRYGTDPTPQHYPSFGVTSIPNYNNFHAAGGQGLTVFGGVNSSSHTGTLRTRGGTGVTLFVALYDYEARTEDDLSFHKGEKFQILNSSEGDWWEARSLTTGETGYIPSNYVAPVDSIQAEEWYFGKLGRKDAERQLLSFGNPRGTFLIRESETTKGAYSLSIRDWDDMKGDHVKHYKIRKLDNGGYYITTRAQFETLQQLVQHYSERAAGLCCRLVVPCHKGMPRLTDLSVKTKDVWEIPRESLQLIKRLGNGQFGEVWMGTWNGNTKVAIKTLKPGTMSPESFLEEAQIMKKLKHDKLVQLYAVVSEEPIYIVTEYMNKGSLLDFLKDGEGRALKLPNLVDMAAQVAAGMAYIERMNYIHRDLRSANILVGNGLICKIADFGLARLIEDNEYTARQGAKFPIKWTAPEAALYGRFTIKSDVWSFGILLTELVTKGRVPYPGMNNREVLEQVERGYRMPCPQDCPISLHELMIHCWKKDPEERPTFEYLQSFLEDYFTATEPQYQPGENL
Sequence of EPHB2 (P29323 whole entry, looked up): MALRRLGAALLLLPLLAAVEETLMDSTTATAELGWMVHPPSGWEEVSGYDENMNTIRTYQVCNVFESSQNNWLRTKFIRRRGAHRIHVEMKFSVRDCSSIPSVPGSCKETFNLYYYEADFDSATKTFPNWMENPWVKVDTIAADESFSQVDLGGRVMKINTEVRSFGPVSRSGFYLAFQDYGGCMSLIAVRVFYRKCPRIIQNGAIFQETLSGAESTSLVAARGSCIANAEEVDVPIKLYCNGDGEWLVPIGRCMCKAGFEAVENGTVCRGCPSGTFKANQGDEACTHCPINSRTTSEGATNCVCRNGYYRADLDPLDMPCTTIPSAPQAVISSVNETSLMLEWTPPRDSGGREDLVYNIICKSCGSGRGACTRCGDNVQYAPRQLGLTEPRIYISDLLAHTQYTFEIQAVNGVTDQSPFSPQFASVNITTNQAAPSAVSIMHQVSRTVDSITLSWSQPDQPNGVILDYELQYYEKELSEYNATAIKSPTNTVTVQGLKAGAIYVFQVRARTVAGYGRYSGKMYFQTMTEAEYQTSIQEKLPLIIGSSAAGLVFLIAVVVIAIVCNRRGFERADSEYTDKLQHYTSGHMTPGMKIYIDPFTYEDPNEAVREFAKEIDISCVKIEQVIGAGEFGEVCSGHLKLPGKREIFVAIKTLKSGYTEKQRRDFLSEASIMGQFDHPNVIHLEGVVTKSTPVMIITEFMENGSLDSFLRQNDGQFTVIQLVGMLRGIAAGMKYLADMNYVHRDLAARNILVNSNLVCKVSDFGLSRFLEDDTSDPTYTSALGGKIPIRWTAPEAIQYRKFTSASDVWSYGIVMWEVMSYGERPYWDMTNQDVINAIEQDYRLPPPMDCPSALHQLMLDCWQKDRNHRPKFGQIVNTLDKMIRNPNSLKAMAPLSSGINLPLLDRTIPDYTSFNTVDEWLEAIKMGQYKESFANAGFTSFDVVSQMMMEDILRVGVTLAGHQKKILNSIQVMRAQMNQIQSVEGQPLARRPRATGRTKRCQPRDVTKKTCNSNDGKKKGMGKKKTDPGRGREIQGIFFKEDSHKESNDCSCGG
Sequence of EPHB1 (P54762 whole entry, looked up): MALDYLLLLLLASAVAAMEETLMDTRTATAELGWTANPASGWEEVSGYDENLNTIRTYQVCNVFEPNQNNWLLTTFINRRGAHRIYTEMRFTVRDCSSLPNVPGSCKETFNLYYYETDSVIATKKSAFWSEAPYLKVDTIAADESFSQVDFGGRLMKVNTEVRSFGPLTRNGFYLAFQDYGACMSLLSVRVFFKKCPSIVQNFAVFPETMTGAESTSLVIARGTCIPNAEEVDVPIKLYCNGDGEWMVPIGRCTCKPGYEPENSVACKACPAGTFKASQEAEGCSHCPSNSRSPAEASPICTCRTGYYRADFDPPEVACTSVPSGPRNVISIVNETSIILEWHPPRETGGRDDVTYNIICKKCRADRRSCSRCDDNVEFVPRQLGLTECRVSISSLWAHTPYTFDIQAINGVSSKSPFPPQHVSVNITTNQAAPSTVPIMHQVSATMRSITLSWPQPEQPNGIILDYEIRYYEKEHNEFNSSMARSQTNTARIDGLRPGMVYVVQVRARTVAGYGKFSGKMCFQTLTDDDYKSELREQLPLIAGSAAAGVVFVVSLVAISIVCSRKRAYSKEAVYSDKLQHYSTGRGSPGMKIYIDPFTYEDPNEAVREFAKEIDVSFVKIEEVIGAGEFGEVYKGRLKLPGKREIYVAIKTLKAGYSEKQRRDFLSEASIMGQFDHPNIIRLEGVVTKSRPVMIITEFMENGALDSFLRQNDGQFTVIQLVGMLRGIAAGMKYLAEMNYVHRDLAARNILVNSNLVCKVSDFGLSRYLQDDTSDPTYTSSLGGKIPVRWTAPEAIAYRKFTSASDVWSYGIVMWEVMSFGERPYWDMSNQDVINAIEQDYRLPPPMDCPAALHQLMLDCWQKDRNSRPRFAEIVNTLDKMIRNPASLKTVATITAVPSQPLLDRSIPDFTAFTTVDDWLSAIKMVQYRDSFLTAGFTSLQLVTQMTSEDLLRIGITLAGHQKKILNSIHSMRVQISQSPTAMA

Row | SH2 binding enrichment (Grb2 SH2) | SH2 binding enrichment (SHP2-C SH2) | SH2 binding enrichment (c-Src SH2) | Sequence | phosphorylation enrichment (AncSZ) | phosphorylation enrichment (Fer (mouse)) | phosphorylation enrichment (Hck) | phosphorylation enrichment (EPHB2) | phosphorylation enrichment (MERTK) | phosphorylation enrichment (Fyn) | phosphorylation enrichment (c-Abl (mouse)) | phosphorylation enrichment (FGFR1) | phosphorylation enrichment (FGFR3) | phosphorylation enrichment (Fes) | phosphorylation enrichment (EPHB1) | phosphorylation enrichment (c-Src) | phosphorylation enrichment (Jak2)
1 | 0.795 | 1.03 | 1.94 | PYADPYYDYEI [ZC3H18_Y371] | 4.79 | 6.03 | 3.13 | 4.58 | 4.93 | 6.02 | 1.16 | 20.2 | 19.8 | 2.33 | 5.6 | 8.11 | 2.75
2 | 1.02 | 0.933 | 0.608 | WSRAMYPDLGP [STARD8_Y330] | 0.745 | 0.435 | 0.463 | 0.397 | 0.478 | 0.463 | 0.52 | 0.467 | 0.575 | 0.779 | 0.396 | 0.39 | 0.579
3 | 0.743 | 0.626 | 0.446 | ISRVLYPNDNF [PYGM_Y281] | 0.649 | 0.422 | 0.395 | 0.524 | 0.37 | 0.759 | 0.602 | 0.448 | 0.472 | 0.748 | 0.438 | 0.477 | 0.675
4 | 0.774 | 0.867 | 0.374 | EPAVLYNLKDR [MYH7_Y103] | 0.722 | 0.455 | 0.662 | 0.537 | 0.473 | 0.583 | 0.571 | 0.521 | 0.539 | 0.835 | 0.411 | 0.461 | 0.585
5 | 0.736 | 0.623 | 0.376 | GDEVEYMSVSF [GCLC_Y53_L55S] | 1.56 | 0.972 | 1.26 | 0.832 | 0.418 | 1.41 | 0.846 | 1.01 | 1.17 | 1.16 | 0.561 | 1.49 | 1.11
6 | 1.13 | 0.936 | 0.604 | DPFHVYIKNRV [KCNE3_Y95_YF] | 1.27 | 0.486 | 0.437 | 0.464 | 0.369 | 0.415 | 0.692 | 0.455 | 0.764 | 1.19 | 0.604 | 0.31 | 1.08
7 | 0.877 | 0.85 | 0.978 | ERFSYYGMKAV [SLC15A2_Y61] | 0.993 | 0.386 | 1.37 | 0.658 | 0.9 | 0.8 | 0.578 | 4.94 | 4.31 | 0.767 | 0.477 | 1.4 | 4.66
8 | 0.783 | 0.844 | 0.653 | FLTLHYDAKPQ [ANG_Y38_Q36L] | 0.912 | 0.328 | 0.462 | 0.426 | 0.301 | 0.449 | 0.501 | 0.532 | 0.575 | 0.983 | 0.505 | 0.312 | 0.669
9 | 0.682 | 0.845 | 0.477 | MGSYNYLGFAW [SPTLC2_Y178_R183W] | 1.11 | 0.617 | 1.4 | 1.88 | 3.65 | 0.708 | 0.737 | 2.96 | 2.24 | 0.937 | 3.69 | 1.04 | 3.68
10 | 0.995 | 0.833 | 0.516 | EIVFVYVKKRS [DNAI2_Y7_YF] | 0.995 | 0.593 | 0.456 | 0.476 | 0.296 | 0.341 | 0.585 | 0.498 | 0.467 | 1.05 | 0.373 | 0.386 | 1.34

The remaining lines, values behind:

Row | Sequence | SH2 binding enrichment (Grb2 SH2) | SH2 binding enrichment (SHP2-C SH2) | SH2 binding enrichment (c-Src SH2) | phosphorylation enrichment (AncSZ) | phosphorylation enrichment (Fer (mouse)) | phosphorylation enrichment (Hck) | phosphorylation enrichment (EPHB2) | phosphorylation enrichment (MERTK) | phosphorylation enrichment (Fyn) | phosphorylation enrichment (c-Abl (mouse)) | phosphorylation enrichment (FGFR1) | phosphorylation enrichment (FGFR3) | phosphorylation enrichment (Fes) | phosphorylation enrichment (EPHB1) | phosphorylation enrichment (c-Src) | phosphorylation enrichment (Jak2)
11 | KDHPDYKFQLR [SOX10_Y171_P175L_YF] | 0.772 | 0.691 | 0.649 | 0.798 | 0.65 | 0.406 | 0.492 | 0.454 | 0.409 | 0.512 | 0.478 | 0.633 | 0.824 | 0.49 | 0.512 | 0.698
12 | SVTCTYSPARN [TP53_Y126_L130R] | 0.793 | 0.613 | 0.371 | 1.22 | 0.554 | 0.56 | 0.654 | 0.449 | 0.489 | 0.84 | 0.53 | 0.756 | 1.37 | 0.576 | 0.555 | 1.06
13 | GFVEDYRPPFF [ACVRL1_Y421_I417F_YF] | 0.784 | 0.675 | 0.398 | 0.944 | 0.411 | 0.525 | 0.444 | 0.428 | 0.442 | 0.868 | 0.537 | 0.6 | 0.987 | 0.504 | 0.501 | 0.879
14 | CSGNCYLDIRP [FBN1_Y1535_R1530C] | 1.19 | 1.07 | 1.37 | 0.591 | 0.404 | 0.504 | 0.442 | 0.49 | 0.446 | 0.509 | 0.646 | 0.532 | 0.646 | 0.452 | 0.609 | 0.514
15 | PIFEGYGLPHA [ACTA1_Y171_A172G_YF] | 0.612 | 0.581 | 0.516 | 0.806 | 0.744 | 0.642 | 0.5 | 0.641 | 0.701 | 0.872 | 0.628 | 0.451 | 0.866 | 0.469 | 0.547 | 0.836
16 | SLALFYRNVFH [RBL1_Y792_K794N_YF] | 0.892 | 0.873 | 0.518 | 0.962 | 0.497 | 0.5 | 1.02 | 0.422 | 0.49 | 0.688 | 0.447 | 0.649 | 1.19 | 0.573 | 0.409 | 1.02
17 | AEFGLYGAMVW [VSX2_Y222_R227W_YF] | 0.805 | 0.656 | 0.457 | 1.26 | 2.1 | 2.93 | 1.15 | 1.06 | 3.08 | 0.995 | 0.645 | 0.887 | 1.48 | 0.729 | 2.69 | 1.38
18 | RIFDFYSARKT [STOX1_Y858_A863T_YF] | 0.977 | 0.907 | 0.517 | 0.715 | 0.311 | 1.37 | 0.553 | 0.595 | 0.485 | 0.491 | 0.519 | 0.496 | 0.833 | 0.467 | 0.624 | 0.417
19 | GGQSVYHVHLH [HINT1_Y109] | 1.19 | 0.904 | 0.897 | 0.619 | 0.455 | 0.686 | 0.487 | 0.434 | 0.865 | 0.581 | 0.495 | 0.532 | 0.77 | 0.476 | 1.01 | 0.629
20 | AMGPVYQAAAL [HYOU1_Y421_A419P] | 0.736 | 0.826 | 0.528 | 0.657 | 6.15 | 6.53 | 1.25 | 1.03 | 5.43 | 3.43 | 0.502 | 0.435 | 0.611 | 0.933 | 4.05 | 0.615
21 | RIFDYYSARKA [STOX1_Y858] | 1.48 | 0.648 | 0.469 | 0.959 | 0.7 | 0.792 | 0.656 | 0.582 | 0.713 | 1.08 | 0.614 | 0.612 | 1.28 | 0.499 | 1.1 | 1.16
22 | RVGVDYEGRGC [PLOD1_Y675_G678R] | 0.902 | 0.797 | 0.638 | 1.01 | 0.51 | 0.528 | 0.464 | 0.59 | 0.542 | 0.575 | 0.617 | 0.709 | 1.02 | 0.69 | 0.424 | 0.616
23 | IPGGIYDADLN [CST4_Y35] | 0.991 | 0.876 | 0.823 | 1.24 | 0.611 | 1.65 | 0.649 | 0.787 | 1.76 | 1.14 | 0.746 | 0.836 | 1.32 | 0.582 | 1.62 | 1.4
24 | GSSSSYGQHGS [HRNR_Y517] | 0.868 | 1.43 | 0.375 | 0.376 | 0.316 | 0.339 | 0.343 | 0.309 | 0.376 | 0.322 | 0.396 | 0.293 | 0.472 | 0.315 | 0.256 | 0.352
25 | IFRASYFRRGD [LTK_Y676_YF] | 0.382 | 0.509 | 0.315 | 0.923 | 0.439 | 0.613 | 0.438 | 0.571 | 0.512 | 0.63 | 0.465 | 0.469 | 0.879 | 0.431 | 0.582 | 0.668
26 | FSPCDYQPCLA [TNS1_Y798_Y796C_YF] | 0.883 | 0.843 | 0.837 | 1.84 | 0.539 | 0.659 | 6.05 | 0.49 | 0.581 | 0.996 | 2.38 | 1.58 | 1.11 | 11.6 | 1.42 | 1.05
27 | DTVRIYDDDFF [UBA1_Y560_E557V] | 0.93 | 0.578 | 0.909 | 1.28 | 0.619 | 0.538 | 0.626 | 0.592 | 0.555 | 0.726 | 0.602 | 0.642 | 1.24 | 0.777 | 0.522 | 1.27
28 | CNTIHYNYMCN [TP53_Y234_T230N] | 0.937 | 4.68 | 6.74 | 0.897 | 0.554 | 0.428 | 0.581 | 0.521 | 0.413 | 0.713 | 0.586 | 0.653 | 0.865 | 0.575 | 0.532 | 0.799
29 | SRPHLYGTPSR [ADGRE2_Y670] | 1.54 | 0.825 | 1.09 | 0.609 | 0.402 | 0.565 | 0.617 | 0.58 | 0.615 | 0.538 | 0.426 | 0.619 | 0.587 | 0.493 | 0.441 | 0.588
30 | YDCKWYIPLTD [BCR_Y756] | 0.863 | 0.707 | 0.597 | 1.47 | 0.502 | 0.571 | 0.711 | 1.51 | 0.483 | 0.914 | 0.839 | 0.805 | 1.41 | 0.689 | 0.69 | 1.68
31 | LPKDLYLISQM [LARP4_Y141_S137P] | 1.02 | 0.795 | 0.406 | 2.15 | 0.646 | 0.891 | 0.757 | 0.785 | 0.69 | 1.2 | 1.15 | 1.55 | 2.13 | 0.784 | 0.788 | 1.46
32 | STEAIYWRYSK [SH3PXD2B_Y42_R43W] | 0.752 | 0.551 | 0.355 | 1.33 | 0.502 | 3.66 | 1.39 | 1.34 | 4.84 | 8.71 | 1.54 | 1.53 | 1.28 | 1.44 | 3.47 | 1.26
33 | GLRFGYGGLGG [KRTAP20-2_Y15_V17G_YF] | 1.05 | 0.612 | 0.593 | 0.655 | 0.368 | 0.376 | 0.467 | 0.456 | 0.394 | 0.455 | 0.509 | 0.53 | 0.739 | 0.455 | 0.419 | 0.581
